# Earlier results as cited in PMC10217895.
# Where two headings read alike, the source gives them in different places.
# Legend:
# SCARA5 (Homo sapiens) = SCARA5 (Homo sapiens) (UniProt Q6ZMJ2)
# LDLR (Homo sapiens) = LDLR (Homo sapiens) (UniProt P01130)
# ASGPR (Homo sapiens) = ASGPR (Homo sapiens) (UniProt P07306)
# SIGLEC5 (Homo sapiens) = SIGLEC5 (Homo sapiens) (UniProt O15389)
# [1] = target: von Willebrand factor (Homo sapiens) (UniProt P04275)
# LRP1 (Homo sapiens) = LRP1 (Homo sapiens) (UniProt Q07954)
# [2] = target: von Willebrand factor (Homo sapiens) (UniProt P04275); remark: listed apart in the source
# Factor VIII, sequence (P00451 760-1332): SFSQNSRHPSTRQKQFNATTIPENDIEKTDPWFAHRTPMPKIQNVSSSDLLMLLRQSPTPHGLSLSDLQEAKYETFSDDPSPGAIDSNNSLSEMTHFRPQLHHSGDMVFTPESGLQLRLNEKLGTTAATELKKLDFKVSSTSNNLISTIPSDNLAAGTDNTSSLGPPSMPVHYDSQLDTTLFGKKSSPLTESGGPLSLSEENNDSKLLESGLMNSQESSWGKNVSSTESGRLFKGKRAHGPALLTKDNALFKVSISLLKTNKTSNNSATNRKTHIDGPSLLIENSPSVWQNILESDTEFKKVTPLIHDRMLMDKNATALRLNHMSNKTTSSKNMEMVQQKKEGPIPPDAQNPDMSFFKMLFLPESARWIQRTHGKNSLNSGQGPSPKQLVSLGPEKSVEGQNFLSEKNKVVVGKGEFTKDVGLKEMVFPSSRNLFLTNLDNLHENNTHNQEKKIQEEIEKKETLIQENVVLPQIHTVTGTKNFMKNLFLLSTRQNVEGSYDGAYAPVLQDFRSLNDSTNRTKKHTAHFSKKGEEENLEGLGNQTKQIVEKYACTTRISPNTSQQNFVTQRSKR
# ASGPR (Homo sapiens), sequence (P07306 whole entry, chain 1 of 2): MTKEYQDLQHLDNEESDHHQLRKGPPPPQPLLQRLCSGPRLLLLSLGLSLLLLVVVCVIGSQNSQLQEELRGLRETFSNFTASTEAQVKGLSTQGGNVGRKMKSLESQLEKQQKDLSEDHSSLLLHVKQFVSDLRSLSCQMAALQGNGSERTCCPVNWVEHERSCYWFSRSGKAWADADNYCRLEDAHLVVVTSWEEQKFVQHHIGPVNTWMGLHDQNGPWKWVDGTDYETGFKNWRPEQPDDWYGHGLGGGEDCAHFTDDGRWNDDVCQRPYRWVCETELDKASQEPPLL
# ASGPR (Homo sapiens), sequence (P07307 whole entry, chain 2 of 2, further chain): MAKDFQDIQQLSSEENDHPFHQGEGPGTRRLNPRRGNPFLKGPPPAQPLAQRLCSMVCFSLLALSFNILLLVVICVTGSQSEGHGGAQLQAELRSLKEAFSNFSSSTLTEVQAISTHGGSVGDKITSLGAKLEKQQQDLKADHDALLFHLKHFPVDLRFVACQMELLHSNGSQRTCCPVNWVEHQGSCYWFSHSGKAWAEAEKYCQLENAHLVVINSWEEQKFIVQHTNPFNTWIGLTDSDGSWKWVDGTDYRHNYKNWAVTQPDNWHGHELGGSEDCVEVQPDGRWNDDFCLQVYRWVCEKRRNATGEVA
# SIGLEC5 (Homo sapiens), sequence (O15389 17-441): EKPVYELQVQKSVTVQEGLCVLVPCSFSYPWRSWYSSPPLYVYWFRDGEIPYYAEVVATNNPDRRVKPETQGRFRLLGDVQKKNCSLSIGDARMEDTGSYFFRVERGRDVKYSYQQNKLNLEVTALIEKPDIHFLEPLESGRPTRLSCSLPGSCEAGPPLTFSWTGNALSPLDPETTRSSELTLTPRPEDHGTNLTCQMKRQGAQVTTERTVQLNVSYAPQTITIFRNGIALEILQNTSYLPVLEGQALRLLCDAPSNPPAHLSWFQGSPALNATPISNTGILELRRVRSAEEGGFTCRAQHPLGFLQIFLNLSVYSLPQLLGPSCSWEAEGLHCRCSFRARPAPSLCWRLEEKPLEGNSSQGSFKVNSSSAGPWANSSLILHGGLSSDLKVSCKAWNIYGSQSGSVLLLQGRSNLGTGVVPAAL
# FVIII-KB013bv, sequence (P00451 20-759): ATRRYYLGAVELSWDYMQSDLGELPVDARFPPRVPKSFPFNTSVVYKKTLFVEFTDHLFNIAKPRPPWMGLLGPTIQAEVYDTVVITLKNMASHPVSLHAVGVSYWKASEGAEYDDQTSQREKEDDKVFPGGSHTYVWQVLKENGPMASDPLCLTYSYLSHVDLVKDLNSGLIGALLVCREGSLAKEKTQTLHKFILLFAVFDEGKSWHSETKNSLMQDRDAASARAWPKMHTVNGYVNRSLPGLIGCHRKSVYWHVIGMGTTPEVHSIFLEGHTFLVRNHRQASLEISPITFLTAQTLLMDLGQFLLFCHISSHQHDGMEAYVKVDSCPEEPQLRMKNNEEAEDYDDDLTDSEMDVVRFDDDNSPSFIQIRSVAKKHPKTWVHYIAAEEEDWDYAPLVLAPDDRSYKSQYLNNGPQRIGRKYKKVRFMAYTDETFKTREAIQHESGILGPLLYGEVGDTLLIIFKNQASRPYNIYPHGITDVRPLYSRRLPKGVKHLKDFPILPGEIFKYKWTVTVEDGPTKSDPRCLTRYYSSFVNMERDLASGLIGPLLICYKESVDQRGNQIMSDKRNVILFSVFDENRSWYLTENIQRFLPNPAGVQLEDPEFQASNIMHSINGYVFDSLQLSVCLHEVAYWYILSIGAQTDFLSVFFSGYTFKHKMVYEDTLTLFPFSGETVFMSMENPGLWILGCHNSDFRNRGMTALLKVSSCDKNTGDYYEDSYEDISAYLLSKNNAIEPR
# FVIII-KB013bv, sequence (P00451 1668-2351): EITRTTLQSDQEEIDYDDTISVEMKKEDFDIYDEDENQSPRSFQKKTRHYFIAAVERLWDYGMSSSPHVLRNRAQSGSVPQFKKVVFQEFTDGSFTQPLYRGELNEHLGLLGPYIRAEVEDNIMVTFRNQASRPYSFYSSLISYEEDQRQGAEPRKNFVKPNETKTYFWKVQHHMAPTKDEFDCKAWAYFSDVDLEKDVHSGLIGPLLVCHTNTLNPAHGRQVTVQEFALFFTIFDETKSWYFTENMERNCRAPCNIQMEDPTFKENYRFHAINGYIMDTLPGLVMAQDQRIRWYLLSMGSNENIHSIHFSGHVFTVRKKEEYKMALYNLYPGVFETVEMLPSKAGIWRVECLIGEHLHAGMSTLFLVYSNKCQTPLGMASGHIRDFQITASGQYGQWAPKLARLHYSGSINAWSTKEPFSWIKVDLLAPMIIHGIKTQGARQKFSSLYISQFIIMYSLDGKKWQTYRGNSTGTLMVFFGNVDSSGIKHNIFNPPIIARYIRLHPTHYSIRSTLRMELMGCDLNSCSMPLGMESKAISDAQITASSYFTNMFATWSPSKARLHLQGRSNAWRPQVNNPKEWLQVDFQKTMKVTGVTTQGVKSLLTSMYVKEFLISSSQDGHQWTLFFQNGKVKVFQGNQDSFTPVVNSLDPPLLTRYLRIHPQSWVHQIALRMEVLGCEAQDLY
# SCARA5 (Homo sapiens), sequence (Q6ZMJ2 whole entry): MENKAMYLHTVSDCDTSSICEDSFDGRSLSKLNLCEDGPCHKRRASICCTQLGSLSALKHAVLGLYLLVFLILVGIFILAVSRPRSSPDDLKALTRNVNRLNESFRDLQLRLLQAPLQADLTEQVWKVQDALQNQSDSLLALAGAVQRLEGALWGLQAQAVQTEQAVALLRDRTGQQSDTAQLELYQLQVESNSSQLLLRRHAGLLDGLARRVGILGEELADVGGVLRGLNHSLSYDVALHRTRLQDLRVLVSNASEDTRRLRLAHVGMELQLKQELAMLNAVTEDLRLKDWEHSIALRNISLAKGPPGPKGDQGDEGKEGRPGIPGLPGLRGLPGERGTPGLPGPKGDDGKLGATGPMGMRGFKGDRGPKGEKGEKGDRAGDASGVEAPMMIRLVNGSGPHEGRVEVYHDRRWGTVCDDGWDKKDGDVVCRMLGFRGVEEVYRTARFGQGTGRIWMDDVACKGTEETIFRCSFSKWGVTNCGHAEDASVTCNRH
# LDLR (Homo sapiens), sequence (P01130 22-788): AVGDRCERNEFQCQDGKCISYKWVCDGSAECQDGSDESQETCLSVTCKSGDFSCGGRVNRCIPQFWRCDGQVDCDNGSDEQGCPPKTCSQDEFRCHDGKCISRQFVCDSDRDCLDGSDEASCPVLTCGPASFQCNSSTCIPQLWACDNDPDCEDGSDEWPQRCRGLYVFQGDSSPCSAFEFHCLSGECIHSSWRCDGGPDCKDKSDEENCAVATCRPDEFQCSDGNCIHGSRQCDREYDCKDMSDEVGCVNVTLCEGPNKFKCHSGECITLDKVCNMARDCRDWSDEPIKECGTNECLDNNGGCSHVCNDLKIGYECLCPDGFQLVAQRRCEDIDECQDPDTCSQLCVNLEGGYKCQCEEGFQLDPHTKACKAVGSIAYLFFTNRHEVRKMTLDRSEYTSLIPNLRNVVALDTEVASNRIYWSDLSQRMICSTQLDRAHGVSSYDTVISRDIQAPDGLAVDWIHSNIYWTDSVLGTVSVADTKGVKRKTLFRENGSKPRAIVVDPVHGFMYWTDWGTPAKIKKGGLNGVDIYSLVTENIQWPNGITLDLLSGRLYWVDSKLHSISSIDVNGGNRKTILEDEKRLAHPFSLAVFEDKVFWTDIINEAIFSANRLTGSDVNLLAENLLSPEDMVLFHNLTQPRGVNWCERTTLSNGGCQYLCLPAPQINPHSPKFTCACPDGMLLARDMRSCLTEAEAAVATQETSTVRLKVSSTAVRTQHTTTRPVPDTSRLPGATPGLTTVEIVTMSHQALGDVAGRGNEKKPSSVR
substance,measurement,setting,value
von Willebrand factor (from UniProt P04275),Kd,SCARA5 (Homo sapiens),0.5 nM
Factor VIII (from UniProt P00451),Kd,LDLR (Homo sapiens),45 nM
same,Kd,ASGPR (Homo sapiens),2 nM
same,Kd,SIGLEC5 (Homo sapiens),8 nM
same,Kd,[1],0.5 nM
same,Kd,LRP1 (Homo sapiens),20 nM
FVIII-KB013bv (from UniProt P00451),Kd,[2],0.013 nM
